Source: patent US10618964B2, “Nanobody against IL-6R” (Ablynx N.V., dated 2020)

B1: IL6RPMP120B2 (VHH)
VHH: EVQLVESGGGLVQAGGSLSLSCATSGRTISDDTMAWFRQAPGKEREFVATITFSGARTHYSDSVRDRFTISRDNAKNTVYLQMNSLKSEDTAVYYCAASTKYYSSTYNYIHPAFYDIWGQGTQVTVSS
B2: IL6RPMP120D2 (VHH)
VHH: B1 VHH
B3: IL6RPMP107A9 (VHH)
VHH: EVQLVESGGGLVQAGGSLRLSCAASGGIFSDMFMGWFRQAPGKSRESVARISPSGNTFYQDSVRGRFTISTDNAKNTVYLQMNNLKPEDTAVYYCAANVGVTGSYEYWGQGTQVTVSS
B4: Reference IgG (antibody, V domains shown)
VH: QVQLQESGPGLVRPSQTLSLTCTVSGYSITSDHAWSWVRQPPGRGLEWIGYISYSGITTYNPSLKSRVTMLRDTSKNQFSLRLSSVTAADTAVYYCARSLARTTAMDYWGQGSLVTVSS
VL: DIQMTQSPSSLSASVGDRVTITCRASQDISSYLNWYQQKPGKAPKLLIYYTSRLHSGVPSRFSGSGSGTDFTFTISSLQPEDIATYYCQQGNTLPYTFGQGTKVEIKR
B5: IL6RPMP107A1 (VHH)
VHH: EVQLVESGGGLVQAGGSLNLSCNASGDIGSINAMGWYRQAPGQQREWVAVITDTDSTIYPDSVKGRFAISRDGAKNTVHLRMSSLKPEDTAVYYCNAYQAGWGDYWGQGTQVTVSS
B6: IL6RPMP106F7 (VHH)
VHH: EVQLVESEGGLVQAGGSLRLSCAASGSIFRINAMGWYRQAPGKQRELVAAAISGGSTNYADFVKGRFTISRDNAKNTVYLQMNSLKPEDTAVYYCNALVVSHNYSDYVPFPDDYWGQGTQVTVSS
B7: IL6RPMP104B8 (VHH)
VHH: EVQLVESGGGLVQAGGSLRLSCAASGFAFDDYAIGWFRQAPGKEREGVSSISSSNGNTYYADSVRGRFTISSDNAKNTVYLQMNSLKPEDTGVYYCAAIWGIFFNEKMPVGAYDYWGQGTQVTVSS
B8: IL6RPMP108E1 (VHH)
VHH: EVQLVESGGGLVQAGGSLRLSCAASGFTFDDYDIGWFRQAPGKEREGVSGISSSDGNTYYADSVKGRFTISSDNAKNTVYLQMNSLKPEDTAVYYCAAEPPDSSWYLDGSPEFFKYWGQGTQVTVSS
B9: IL6RPMP100G11 (VHH)
VHH: EVQLVESGGGLVQAGGSLRLSCAASGRGFSPYTMGWFRQAPGKERVFVAGISWSTGIAHYTDSVKGRFTISRDNAKNTGSLQMNSLKPEDTAVYYCAVVQTTKGNYDYWGQGTQVTVSS

What was measured:
[1] = biological target: T1, soluble IL-6R in cynomolgous plasma (cynomolgus monkey, UniProt A0A2K5WN54); test: ELISA 2, periplasmic extract; competitor IL-6; cyno plasma
[2] = biological target: T2, native soluble IL-6R in human plasma (human, UniProt P08887); test: ELISA 1, periplasmic extract; competitor IL-6; human plasma
[3] = biological target: T2, native soluble IL-6R in human plasma; test: ELISA 3, periplasmic extract; competitor BN-12; human plasma
IL-6R on TF-1 cells = IL-6R on TF-1 cells (Homo sapiens (Human), UniProt P08887); test: cell-based or functional assay
[4] = biological target: T1, soluble IL-6R in cynomolgous plasma; test: plasma potency ELISA, purified Nanobody; competitor IL-6; cyno plasma
Procedure: (§1) In this ELISA, plasma was used as a source of native soluble IL-6R. By this assay, we aimed to confirm the alphascreen results and to get a view on the cross-reactivity of the clones towards cynomolgous IL-6R. Human plasma (ELISA 1 and ELISA 3) or cynomolgous plasma (ELISA 2) were pre-incubated with a dilution of the periplasmic extract of the clones together with human IL-6 (50 ng/mL). Subsequently, plasma soluble IL-6R was captured on a B-N12 coated plate and bound IL-6 was detected using anti-IL-6 antibody BAF206 and streptavidin-HRP (ELISA 1 and ELISA 2). The ELISA signal dropped when the Nanobody clone could compete with IL-6 for binding to soluble IL-6R. ELISA 3 was a parallel ELISA in which the detection antibody was replaced by anti-IL-6R antibody BAF227 to exclude false positive competitors, which actually compete with B-N12 (e.g. family 2). Depicted in Table C-5 is the ratio of the OD450 value of the test sample versus the blank OD450 (mock sample). Clones were ordered based on ELISA 1 data.
(§2) A potency ELISA was done with the purified Nanobodies as described in Example 9. Here, different dilutions of each purified Nanobody were incubated with human (ELISA1) and cynomolgous plasma (ELISA2). IC50 values are depicted in Table C-9.

[5] = biological target: T2, native soluble IL-6R in human plasma; test: plasma potency ELISA, purified Nanobody; competitor IL-6; human plasma
Procedure: as §1, §2

Row | Binder | OD450 ratio sample/blank [1] | OD450 ratio sample/blank [2] | OD450 ratio sample/blank [3] | IC50, IL-6-dependent proliferation of TF-1 cells (3H-thymidine) (IL-6R on TF-1 cells) [nM] | IC50 [4] [nM] | IC50 [5] [nM]
1 | B1 | 0.204 | 0.645 | 1.02 |  |  | 
2 | B2 | 0.158 | 0.659 | 0.993 |  |  | 
3 | B3 | 0.0867 | 1.08 | 0.992 | 349 | 4.7 | 3.5
4 | B4 |  |  |  | 0.53 |  | 
5 | B5 | 0.292 | 0.215 | 0.967 | 4.05 | 47.8 | 0.38
6 | B6 | 1 | 0.672 | 1 |  |  | 
7 | B7 | 0.735 | 1.46 | 1.05 | 245 | 252 | 7.8
8 | B8 | 0.359 | 0.0894 | 0.954 | 0.149 | 29.1 | 0.15
9 | B9 | 0.202 | 1.71 | 0.997 | 116 |  | 
